Measurements published in publication PMC12296736.
Read-outs that look alike come from different tables or passages of the source.

T1: His-nOsBZR4 (His-OsBZR4) (Oryza sativa (rice), UniProt Q6EUF1 1-108)
T1 sequence: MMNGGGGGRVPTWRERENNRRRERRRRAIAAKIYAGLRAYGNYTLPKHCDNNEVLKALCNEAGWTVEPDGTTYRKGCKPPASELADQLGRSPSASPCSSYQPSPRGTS

B1: YUC4-EMSA (dsDNA)
DNA 1: CGACCGAGCATATGCTCCGTGTTGGTGTATATATACTCGT
DNA 2: ACGAGTATATATACACCAACACGGAGCATATGCTCGGTCG
B2: YUC11-EMSA (dsDNA)
DNA 1: TTCCGTATAAATAGCATGTGCTCTCCGA
DNA 2: TCGGAGAGCACATGCTATTTATACGGAA

Assays:
His-nOsBZR4 (His-OsBZR4) [1] = target: T1, His-nOsBZR4 (His-OsBZR4); experiment: EMSA
His-nOsBZR4 (His-OsBZR4) [2] = target: T1, His-nOsBZR4 (His-OsBZR4); experiment: EMSA; remark: listed apart in the source

Binder	binding result (His-nOsBZR4 (His-OsBZR4) [1])	binding result (His-nOsBZR4 (His-OsBZR4) [2])
B1	binds	
B2		binds
